Source: paper PMC5512693, “Bacterial RadA is a DnaB-type helicase interacting with RecA to promote bidirectional D-loop extension” (Nature Communications, 2017)

Assays:
[1] = test system: T1, RadA (RadAFL); test: coupled spectrophotometric ATPase assay (pyruvate kinase / lactate dehydrogenase, NADH at […] nm), Michaelis-Menten fit; assay type: biochemical, Streptococcus pneumoniae; details: ATP 0-2 mM, 600 nM RadA, 2 uM nt phiX174 ssDNA, 4 mM Mg(OAc)2, pH 7.5, 37 C
T1 construct: full length, 453 residues, hexamer; recombinant in E. coli; ATPase work with native untagged protein (pET21d); crystal with SeMet RadAFL (pET-radA or StrepII-tagged IBA13-radA), C4 domain (1-35) unresolved

[2] = target: P domain of pneumococcal RadA (RadAP) (S. pneumoniae); test: SEC-MALS; samples at 2 mg/ml injected on Superdex200 Increase coupled to MALS and refractive index detection, 0.4 ml/min, 298 K; hexamer independent of nucleotide and Mg2+
[3] = target: RadA K101A, purified without tag (S. pneumoniae); test: SEC; gel filtration of purified untagged RadA proteins on Superdex 200 increase 10/300 in 25 mM Tris pH 8, 200 mM NaCl, 20% glycerol; calibrated with 43, 158 and 440 kDa standards
[4] = target: RadA K251A, purified without tag (S. pneumoniae); test: as above
[5] = target: RadA R253A, purified without tag (S. pneumoniae); test: as above
[6] = target: full-length pneumococcal RadA (RadAFL), preparation for structural analysis (S. pneumoniae); test: SEC-MALS; samples at 2 mg/ml injected on Superdex200 Increase coupled to MALS and refractive index detection, 0.4 ml/min, 298 K; hexamer independent of nucleotide and Mg2+

Nc1ncnc2c1ncn2[C@@H]1O[C@H](COP(=O)(O)OP(=O)(O)OP(=O)(O)O)[C@@H](O)[C@H]1O [ATP]
Km [1]: 150 µM

P domain of pneumococcal RadA (RadAP) (domain or fragment)
stoichiometry N [2]: 6

RadA K101A, purified without tag (enzyme)
stoichiometry N [3]: 6

RadA K251A, purified without tag (enzyme)
stoichiometry N [4]: 6

RadA R253A, purified without tag (enzyme)
stoichiometry N [5]: 6

full-length pneumococcal RadA (RadAFL), preparation for structural analysis (enzyme)
stoichiometry N [6]: 6
